Laboratory results taken from patent publication US20180339042A1.

Tests used:
activated T cells = activated T cells (UniProt Q9Y5U5); assay: FACS binding, activated T cells; isotype control
[1] = molecular target: human GITR, membrane bound (human) (UniProt Q9Y5U5); assay: cell-based or functional assay
Sequence of human GITR, membrane bound (human) (Q9Y5U5 26-241): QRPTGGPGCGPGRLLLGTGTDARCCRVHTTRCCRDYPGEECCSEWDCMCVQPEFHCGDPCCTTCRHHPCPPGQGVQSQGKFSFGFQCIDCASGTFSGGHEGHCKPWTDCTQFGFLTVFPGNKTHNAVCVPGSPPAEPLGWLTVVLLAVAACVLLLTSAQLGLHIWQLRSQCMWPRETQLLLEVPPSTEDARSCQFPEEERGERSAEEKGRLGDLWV

Sequence of activated T cells (Q9Y5U5 26-241): as above

| EC50 (activated T cells) [µM] | NFKB signaling (phospho-p65), CD4+ T cells, Emax (%) [1] [%] | NFKB signaling (phospho-p65), CD8+ T cells, Emax (%) [1] [%] | Substance |
| --- | --- | --- | --- |
| 0.00673 |  |  | unrelated hIgG2 |
| 0.132 |  |  | unrelated hIgG1 |
|  | 4 | 6 | hIgG1 Isotype Control (antibody) |
